{"source": "patent US11752213B2", "about": "“Surfaces having reduced non-specific binding and antigenicity” (Duke University, priority 2015, dated 2023)", "tested_on": "IgG Ab to PEG in patient plasma", "experiment": "Indirect ELISA detection of APAs in patient plasma against Adagen-coated plates", "format": "binding, human", "conditions": "5 replicates", "method": "Informed signed consent was obtained from either the patient or from next of kin. (A) ELISA detection of APAs: Plasma samples diluted 1:21 in 1% BSA in PBS were tested by ELISA for IgG Ab to PEG, but using Adagen® (Sigma Tau Pharmaceuticals, Gaithersburg, Md.) rather than Krystexxa® as the antigen. (B) Surface fluoroimmunoassay against patient APAs: Polymer-coated surfaces were incubated with patient plasma samples diluted 1:3 in PBS for 1 h, and then washed 3 times with wash buffer (0.5% CHAPS in PBS). Next, the surfaces were exposed to a 1 μg/mL solution of Cy5-goat-anti-human IgG detection Ab (R & D Systems, Inc.) for 30 min. Surfaces were then rinsed again to remove any loosely-bound proteins, centrifuged at 4800 rpm for 15 s to wick away excess liquid, then allowed to dry under ambient conditions. Fluorescence imaging and analysis of all samples was performed using an Axon Genepix 4400 tabletop scanner and ImageJ Fiji as described above.\nWe performed an indirect ELISA on these patient plasma samples to quantify the level of IgG binding to Adagen (PEGylated adenosine deaminase)."}
{"molecule": "ADAGEN: a PEGylated adenosine deaminase for treating severe combined immunodeficiency disease (SCID) (conjugate) AQTPAFNKPKVELHVHLDGAIKPETILYYGRKRGIALPADTPEELQNIIGMDKPLSLPEFLAKFDYYMPAIAGCREAVKRIAYEFVEMKAKDGVVYVEVRYSPHLLANSKVEPIPWNQAEGDLTPDEVVSLVNQGLQEGERDFGVKVRSILCCMRHQPSWSSEVVELCKKYREQTVVAIDLAGDETIEGSSLFPGHVKAYAEAVKSGVHRTVHAGEVGSANVVKEAVDTLKTERLGHGYHTLEDATLYNRLRQENMHFEVCPWSSYLTGAWKPDTEHPVVRFKNDQVNYSLNTDDPLIFKSTLDTDYQMTKNEMGFTEEEFKRLNINAAKSSFLPEDEKKELLDLLYKAYGMPSPA", "values": [{"measurement": "OD 405 nm Avg", "setting": "Pt# 1, APA neg, sample 929-237-01", "result": 0.149}, {"measurement": "OD 405 nm Avg", "setting": "Pt# 2, APA pos, sample 929-219-07", "result": 0.714}, {"measurement": "OD 405 nm Avg", "setting": "Pt# 3, APA pos, sample 929-237-12", "result": 1.243}, {"measurement": "OD 405 nm Avg", "setting": "Pt# 4, APA pos, sample 929-241-07", "result": 1.679}, {"measurement": "OD 405 nm Avg", "setting": "Pt# 5, APA pos, sample 929-218-21", "result": 3.059}]}
